A short description of data set [1]: plasma samples from minipigs dosed i.v., pooled from two minipigs for each time point. To be noted: Göttingen Minipigs, up to 288 h post dosing.
Data set [2] concerns the target PYY3-36 analogue 56: [Lys4(TAMRA), Lys30(C18 diacid-gammaGlu-2xAdo)]PYY3-36 L30K (acylated) (UniProt P10082). As to the kind of experiment: fluorescence polarization (TAMRA-labelled peptide; excitation 535/25 nm, emission 595/35 nm; Tecan Spark, 384-well plate). To be noted: room temperature, 140 mM NaCl at pH 7.4, 150 mM NaCl at pH 6.0, 10 mM sodium phosphate at pH 7.4, 20 mM MES at pH 6.0.

Data set [3] deals with PYY3-36 analogue 60: [Lys4(TAMRA), Lys30(C20 diacid-gammaGlu-2xAdo)]PYY3-36 L30K (acylated) (UniProt P10082). The description is as above. To be noted: room temperature, 140 mM NaCl at pH 7.4, 150 mM NaCl at pH 6.0, 10 mM sodium phosphate at pH 7.4, 20 mM MES at pH 6.0.
PYY3-36 analogue 60: [Lys4(TAMRA), Lys30(C20 diacid-gammaGlu-2xAdo)]PYY3-36 L30K (acylated), sequence (P10082 whole entry, stated change not applied): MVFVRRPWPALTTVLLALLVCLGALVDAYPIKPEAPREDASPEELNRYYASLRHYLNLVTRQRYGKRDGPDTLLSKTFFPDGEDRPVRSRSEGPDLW
The target of data set [4] is PYY3-36 analogue 58: [Lys4(TAMRA), Lys30(C14 diacid-gammaGlu-2xAdo)]PYY3-36 L30K (acylated) (UniProt P10082). The data set is described as above. To be noted: room temperature, 140 mM NaCl at pH 7.4, 150 mM NaCl at pH 6.0, 10 mM sodium phosphate at pH 7.4, 20 mM MES at pH 6.0.
PYY3-36 analogue 58: [Lys4(TAMRA), Lys30(C14 diacid-gammaGlu-2xAdo)]PYY3-36 L30K (acylated), sequence (P10082 whole entry, stated change not applied): as above
The target in data set [5] is PYY3-36 analogue 59: [Lys4(TAMRA), Lys30(C16 diacid-gammaGlu-2xAdo)]PYY3-36 L30K (acylated) (UniProt P10082). Described as above. To be noted: room temperature, 140 mM NaCl at pH 7.4, 150 mM NaCl at pH 6.0, 10 mM sodium phosphate at pH 7.4, 20 mM MES at pH 6.0.
PYY3-36 analogue 59: [Lys4(TAMRA), Lys30(C16 diacid-gammaGlu-2xAdo)]PYY3-36 L30K (acylated), sequence (P10082 whole entry, stated change not applied): as above
The conditions of data set [6]: cited from earlier work.

The values below come from PMC8551270 (Scientific Reports, 2021).

One may read the Kd as the free concentration of one partner at which half of the binding sites on the other are occupied at equilibrium, for simple one-to-one binding. Read a high Kd as a looser complex.

Entries after “also recorded” stand apart in the source; their conditions may differ.

PYY3-36 analogue 56: [Lys4(TAMRA), Lys30(C18 diacid-gammaGlu-2xAdo)]PYY3-36 L30K (acylated), sequence (P10082 whole entry, stated change not applied): as above

For [(C18diacid-γGlu-2xAdo)]PYY3-36, the fragment found result in data set [1] is on record as “PYY3-34; also recorded: PYY3-35”.
The same measure, in the same setting: to [C20diacid-Trx-γGlu-2xAdo]PYY3-36 belongs “[C20diacid-Trx-LgGly-2xAdo]PYY3-34, major”; to [K^ε30(C18diacid-γGlu-2xAdo)]PYY3-36, “PYY4-36, minor; also recorded: PYY6-36, minor”.
As for “human serum albumin (HSA), fatty-acid free”, the Kd in data set [2] (pH 6.0) was determined as 930 nM; in data set [2] (pH 7.4) it was 580 nM; in data set [3] (pH 6.0), 350 nM; in data set [3] (pH 7.4), 98 nM; in data set [4] (pH 6.0), 23000 nM; in data set [4] (pH 7.4), 44000 nM. The results for the Kd in data set [5] (pH 6.0) and in data set [5] (pH 7.4) were 4700 nM and 4200 nM, respectively.
In the case of “porcine serum albumin (PSA), charcoal-defatted”, the Kd was found to be 890 nM in data set [2] (pH 6.0); 600 nM in data set [2] (pH 7.4); 460 nM in data set [3] (pH 6.0); 270 nM in data set [3] (pH 7.4); 34000 nM in data set [4] (pH 6.0); 48000 nM in data set [4] (pH 7.4). In addition, the dissociation constant (Kd) in data set [5] (pH 6.0) worked out at 5300 nM; in data set [5] (pH 7.4) it was 4500 nM.
In the case of semaglutide, the “half-life in the minipig model” value in data set [6] is reported as “approximately 46 hours”.
